Assay results reported in the supplement of paper PMC6379048.

Tests used:
Test in all cases: EC50 of free RNA motif oligo competing protein binding to immobilised probe
SRSF3 = target: T1, SRSF3 (UniProt P84103)
T1 sequence: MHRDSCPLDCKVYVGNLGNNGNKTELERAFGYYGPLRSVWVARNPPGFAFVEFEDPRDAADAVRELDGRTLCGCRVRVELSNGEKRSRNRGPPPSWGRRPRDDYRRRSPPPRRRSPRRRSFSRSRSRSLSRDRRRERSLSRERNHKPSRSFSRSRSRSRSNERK
How it was run: (§1)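 Over three biological replicates and two independent experiments, proteins captured on NHS-Sepharose beads carrying 5′-amino-C6 RNA oligos were quantified by label-free LC-MS/MS and normalised to the control. Capture lasted 30 min at 4°C and followed a 1 h pre-incubation at 4°C of HEK293-FT lysate (2.5 mg protein/well) with the same oligos in free form (0 nM to 30 μM). EC50 was taken from a four-parameter log-logistic fit, and Kd was EC50 corrected by a protein-dependent depletion factor.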

ELAVL1 = ELAVL1 (UniProt Q15717)
Chain of ELAVL1 (Q15717 whole entry): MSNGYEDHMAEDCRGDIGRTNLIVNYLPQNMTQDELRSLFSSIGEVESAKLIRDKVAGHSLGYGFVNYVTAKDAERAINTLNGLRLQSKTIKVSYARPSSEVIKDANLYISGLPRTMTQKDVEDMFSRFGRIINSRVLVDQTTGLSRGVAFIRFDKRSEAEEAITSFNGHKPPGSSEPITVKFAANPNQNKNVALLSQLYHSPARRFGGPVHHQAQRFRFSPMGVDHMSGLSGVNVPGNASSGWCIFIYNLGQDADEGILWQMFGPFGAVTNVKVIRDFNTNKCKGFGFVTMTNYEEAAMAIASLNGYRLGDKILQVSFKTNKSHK
How it was run: as §1

DAZAP1 = target: T2, DAZAP1 (UniProt Q96EP5)
T2 sequence: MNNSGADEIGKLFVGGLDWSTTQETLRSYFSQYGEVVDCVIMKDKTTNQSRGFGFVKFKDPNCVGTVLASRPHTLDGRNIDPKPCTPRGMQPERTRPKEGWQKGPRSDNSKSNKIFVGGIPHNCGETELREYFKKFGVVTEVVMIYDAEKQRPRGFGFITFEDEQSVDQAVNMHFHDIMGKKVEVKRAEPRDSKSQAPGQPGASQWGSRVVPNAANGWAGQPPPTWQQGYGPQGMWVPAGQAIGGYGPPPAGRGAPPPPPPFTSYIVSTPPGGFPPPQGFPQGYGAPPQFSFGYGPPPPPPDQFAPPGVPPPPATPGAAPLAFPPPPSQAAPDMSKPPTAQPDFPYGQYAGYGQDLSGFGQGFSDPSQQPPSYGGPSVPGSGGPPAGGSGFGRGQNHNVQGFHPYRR
How it was run: as §1

ZNF830 = target: T3, ZNF830 (UniProt Q96NB3)
T3 sequence: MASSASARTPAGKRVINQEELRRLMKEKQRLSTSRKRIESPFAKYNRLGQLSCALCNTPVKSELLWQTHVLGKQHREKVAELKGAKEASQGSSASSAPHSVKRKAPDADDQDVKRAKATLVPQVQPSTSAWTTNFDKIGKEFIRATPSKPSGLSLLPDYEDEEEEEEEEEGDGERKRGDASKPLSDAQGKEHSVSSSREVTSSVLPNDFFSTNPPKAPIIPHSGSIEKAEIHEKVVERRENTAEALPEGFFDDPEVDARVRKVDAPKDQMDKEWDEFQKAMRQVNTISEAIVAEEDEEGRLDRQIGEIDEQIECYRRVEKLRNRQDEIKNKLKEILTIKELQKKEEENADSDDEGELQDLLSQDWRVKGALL
How it was run: as §1

MEX3A = target: T4, MEX3A (UniProt A1L020)
T4 sequence: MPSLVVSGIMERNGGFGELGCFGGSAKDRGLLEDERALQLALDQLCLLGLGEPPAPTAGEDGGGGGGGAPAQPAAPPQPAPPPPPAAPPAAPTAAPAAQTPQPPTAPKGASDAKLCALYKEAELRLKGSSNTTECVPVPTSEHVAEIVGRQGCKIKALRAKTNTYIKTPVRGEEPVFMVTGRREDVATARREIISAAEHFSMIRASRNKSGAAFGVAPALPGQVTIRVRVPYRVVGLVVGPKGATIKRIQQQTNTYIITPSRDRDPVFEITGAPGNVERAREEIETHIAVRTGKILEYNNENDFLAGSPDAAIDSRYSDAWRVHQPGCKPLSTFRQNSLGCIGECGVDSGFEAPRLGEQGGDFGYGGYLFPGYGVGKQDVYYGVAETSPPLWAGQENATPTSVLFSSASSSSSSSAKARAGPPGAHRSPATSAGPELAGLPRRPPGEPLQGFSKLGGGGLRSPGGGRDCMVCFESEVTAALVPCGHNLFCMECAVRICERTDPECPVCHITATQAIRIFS
How it was run: as §1

| Sequence | EC50 (SRSF3) [nM] | EC50 (ELAVL1) [nM] | EC50 (DAZAP1) [nM] | EC50 (ZNF830) [nM] | EC50 (MEX3A) [nM] |
| --- | --- | --- | --- | --- | --- |
| CUGUCCU | 2620 |  |  |  |  |
| AAUAAA | 3030 | 5060 | 1240 | 1030 | 1470 |
| UAUUUAU |  | 3040 | 1220 | 378 | 989 |
